Assay results: patent US20200347147A1 (Hoffmann-La Roche, published 2020)
One block for each binder: values may come before it.

Key:
[1] = target: T1, human Carcinoembryonic antigen (CEA), also known as Carcinoembryonic antigen-related cell adhesion molecule 5 (human, UniProt P06731 35-685); test: flow cytometry on CEA-expressing MKN45 cells, PE anti-human Fc secondary
T1 construct: whole, on cells; Expressed on the tumor cell lines MKN45, LS174T, HT29 and others, and on transiently transfected HEK293T cells; also called human CEA; CEACAM5
T1 sequence (looked up): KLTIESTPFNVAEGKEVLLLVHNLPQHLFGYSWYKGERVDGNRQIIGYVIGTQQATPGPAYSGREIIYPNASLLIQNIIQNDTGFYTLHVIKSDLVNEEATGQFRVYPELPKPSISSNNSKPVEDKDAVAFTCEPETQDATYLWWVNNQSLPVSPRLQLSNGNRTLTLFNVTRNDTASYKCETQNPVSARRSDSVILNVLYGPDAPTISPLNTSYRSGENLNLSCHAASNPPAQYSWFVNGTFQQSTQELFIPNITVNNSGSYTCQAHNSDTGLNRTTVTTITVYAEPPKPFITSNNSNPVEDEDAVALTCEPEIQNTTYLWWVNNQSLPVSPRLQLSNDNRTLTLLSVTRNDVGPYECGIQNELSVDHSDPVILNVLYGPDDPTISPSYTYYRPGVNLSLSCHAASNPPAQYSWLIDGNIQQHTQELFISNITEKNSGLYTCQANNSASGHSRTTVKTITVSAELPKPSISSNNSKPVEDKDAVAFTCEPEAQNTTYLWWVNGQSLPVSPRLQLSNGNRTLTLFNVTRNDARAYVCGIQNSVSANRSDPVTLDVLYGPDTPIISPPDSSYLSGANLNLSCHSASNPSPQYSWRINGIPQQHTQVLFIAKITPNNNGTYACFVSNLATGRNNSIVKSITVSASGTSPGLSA
Procedure: Briefly, cells were harvested, counted, checked for viability and re-suspended at 2×10⁶ cells/ml in FACS buffer (100 μl PBS 0.1% BSA). […] Binding curves and EC50 values were obtained and calculated using GraphPadPrism5 (FIG. 2, binding to MKN45 cells).

[2] = target: T2, human CEACAM1 (human, UniProt P13688 35-526); test: flow cytometry on transient HEK293T transfectants
T2 construct: whole, on cells
T2 sequence (looked up): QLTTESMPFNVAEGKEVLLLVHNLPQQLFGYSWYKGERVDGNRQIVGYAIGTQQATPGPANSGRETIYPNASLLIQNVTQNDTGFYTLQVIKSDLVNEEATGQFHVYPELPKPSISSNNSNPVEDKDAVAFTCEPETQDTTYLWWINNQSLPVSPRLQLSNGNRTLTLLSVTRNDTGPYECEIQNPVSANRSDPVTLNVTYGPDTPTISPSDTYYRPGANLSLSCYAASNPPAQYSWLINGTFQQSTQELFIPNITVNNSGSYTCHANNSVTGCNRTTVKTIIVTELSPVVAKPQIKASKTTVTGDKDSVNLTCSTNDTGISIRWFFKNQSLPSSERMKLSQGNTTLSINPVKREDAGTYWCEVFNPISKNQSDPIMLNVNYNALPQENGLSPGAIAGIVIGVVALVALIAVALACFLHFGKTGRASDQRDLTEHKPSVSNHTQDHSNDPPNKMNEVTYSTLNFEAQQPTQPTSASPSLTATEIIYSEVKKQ
Procedure: (§1) Briefly, cells were harvested, counted, checked for viability and re-suspended at 1×10⁶ cells/ml in FACS buffer (100 μl PBS 0.1% BSA). 100 μl of the cell suspension (containing 0.1×10⁶ cells) were plated iton round-bottom 96-well plates and washed twice with 150 μl of cold PBS. Cells were stained for 30 min at 4° C., using a 1:5000 pre-diluted suspension of the fixable viability dye eFluor660 (eBioscience, #65-0864-14) in PBS. […] Cells were washed twice with cold PBS 0.1% BSA, re-incubated for further 30 min at 4° C. with the FITC-conjugated AffiniPure F(ab′)2 Fragment goat anti-human IgG Fcg Fragment Specific secondary antibody (Jackson Immuno Research Lab FITC #109-096-098, 1:50 pre-diluted in PBS 0.1% BSA), washed twice with cold PBS 0.1% BSA and fixed using 150 μl PBS 0.1% BSA, containing 2% PFA and incubation at 4° C. for 20 min. Thereafter, cells were washed once for 8 min at 400×g, 4° C. and finally re-suspended in 150 μl FACS buffer for the FACS measurement. Fluorescence was measured using BD FACS CantoII. Binding curves were obtained using GraphPadPrism6 (FIG. 20A).

[3] = target: T3, human CEACAM6 (human, UniProt P40199 35-320); test: flow cytometry on transient HEK293T transfectants
T3 construct: whole, on cells
T3 sequence (looked up): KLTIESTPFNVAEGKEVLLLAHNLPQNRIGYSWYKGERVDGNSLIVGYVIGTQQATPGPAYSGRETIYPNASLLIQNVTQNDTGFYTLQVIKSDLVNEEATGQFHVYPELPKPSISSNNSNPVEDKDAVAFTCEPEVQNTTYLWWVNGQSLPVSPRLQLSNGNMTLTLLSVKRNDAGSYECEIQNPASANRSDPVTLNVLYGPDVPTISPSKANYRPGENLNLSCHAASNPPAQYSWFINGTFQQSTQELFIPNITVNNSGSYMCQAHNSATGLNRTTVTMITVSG
Procedure: as §1

[4] = target: T1, human Carcinoembryonic antigen (CEA), …; test: flow cytometry on LS-174T cells (~40 700 CEA binding sites)
Procedure: (§2) The binding of the TCB molecules used in Example 5A and B was tested on different CEA-expressing tumor and CD3-expressing Jurkat (DSMZ ACC 282) cells.
(§3) Briefly, cells were harvested, counted, checked for viability and re-suspended at 2×10⁶ cells/ml in FACS buffer (100 μl PBS 0.1% BSA). 100 μl of cell suspension (containing 0.2×10⁶ cells) were incubated in round-bottom 96-well plate for 30 min at 4° C. with increasing concentrations of the CEA IgG (31 pM-500 nM), washed twice with cold PBS 0.1% BSA, re-incubated for further 30 min at 4° C. with the FITC-conjugated AffiniPure F(ab′)2 Fragment goat anti-human IgG Fcg Fragment Specific secondary antibody (Jackson Immuno Research Lab FITC #109-096-008, 1:40 pre-diluted in PBS 0.1% BSA), washed twice with cold PBS 0.1% BSA and fixed using 150 μl PBS 0.1% BSA, containing 2% PFA and incubation at 4° C. for 20 min. Thereafter, cells were washed once for 8 min at 400×g, 4° C. and finally re-suspended in 150 μl FACS buffer for the FACS measurement. Fluorescence was measured using Miltenyi MACSQuant.

[5] = target: T1, human Carcinoembryonic antigen (CEA), …; test: cell-based or functional assay
[6] = target: T1, human Carcinoembryonic antigen (CEA), …; test: flow cytometry on MKN45 cells (~513 300 CEA binding sites)
Procedure: as §2, §3

EC50 [1]: 1.5 µg/mL
B1: Humanized variant 1 of T84.66 IgG (antibody, V domains shown)
VH: QVQLVQSGAEVKKPGSSVKVSCKASGFNIKDTYMHWVRQAPGQGLEWMGRIDPANGNSKYVPKFQGRVTITADTSTSTAYMELSSLRSEDTAVYYCAPFGYYVSDYAMAYWGQGTLVTVSS
VL: EIVLTQSPATLSLSPGERATLSCRAGESVDIFGVGFLHWYQQKPGQAPRLLIYRASNRATGIPARFSGSGSGTDFTLTISSLEPEDFAVYYCQQTNEDPYTFGQGTKLEIK
notes: Tested as IgG and detected with an anti-human IgG Fc secondary antibody

binding result [2]: no binding (tested: 30.5 pM-500 nM)
binding result [3]: no binding (tested: 30.5 pM-500 nM)
B2: CEA CD3 TCB molecule B, "2+1 IgG CrossFab, inverted" with charge modifications, humanized CEA binder (humanized variant 1) (bispecific antibody)
heavy 1: not shown
heavy 2: QVQLVQSGAEVKKPGSSVKVSCKASGFNIKDTYMHWVRQAPGQGLEWMGRIDPANGNSKYVPKFQGRVTITADTSTSTAYMELSSLRSEDTAVYYCAPFGYYVSDYAMAYWGQGTLVTVSSASTKGPSVFPLAPSSKSTSGGTAALGCLVEDYFPEPVTVSWNSGALTSGVHTFPAVLQSSGLYSLSSVVTVPSSSLGTQTYICNVNHKPSNTKVDEKVEPKSCDKTHTCPPCPAPEAAGGPSVFLFPPKPKDTLMISRTPEVTCVVVDVSHEDPEVKFNWYVDGVEVHNAKTKPREEQYNSTYRVVSVLTVLHQDWLNGKEYKCKVSNKALGAPIEKTISKAKGQPREPQVCTLPPSRDELTKNQVSLSCAVKGFYPSDIAVEWESNGQPENNYKTTPPVLDSDGSFFLVSKLTVDKSRWQQGNVFSCSVMHEALHNHYTQKSLSLSP
light 1: EIVLTQSPATLSLSPGERATLSCRAGESVDIFGVGFLHWYQQKPGQAPRLLIYRASNRATGIPARFSGSGSGTDFTLTISSLEPEDFAVYYCQQTNEDPYTFGQGTKLEIKRTVAAPSVFIFPPSDRKLKSGTASVVCLLNNFYPREAKVQWKVDNALQSGNSQESVTEQDSKDSTYSLSSTLTLSKADYEKHKVYACEVTHQGLSSPVTKSFNRGEC
light 2: EVQLLESGGGLVQPGGSLRLSCAASGFTFSTYAMNWVRQAPGKGLEWVSRIRSKYNNYATYYADSVKGRFTISRDDSKNTLYLQMNSLRAEDTAVYYCVRHGNFGNSYVSWFAYWGQGTLVTVSSASVAAPSVFIFPPSDEQLKSGTASVVCLLNNFYPREAKVQWKVDNALQSGNSQESVTEQDSKDSTYSLSSTLTLSKADYEKHKVYACEVTHQGLSSPVTKSFNRGEC
notes: The two copies of the CEA light chain follow from the 2+1 format and the 1:2:1:1 vector ratio; also called CEA CD3 TCB based on humanized variant 1

EC50 [4]: 11.7 nM
EC50 of T-cell mediated lysis of Kato III cells (LDH release, human PBMC, E:T 10:1), 48 h [5]: 8.23 nM
EC50 [6]: 27.9 nM
B3: CEA CD3 TCB molecule X (TCB of similar structure as molecule B, based on a different humanized CEA binder not based on T84.66) (bispecific antibody)
chain 1: not shown
chain 2: QVQLVQSGAEVKKPGASVKVSCKASGYTFTEFGMNWVRQAPGQGLEWMGWINTKTGEATYVEEFKGRVTFTTDTSTSTAYMELRSLRSDDTAVYYCARWDFAYYVEAMDYWGQGTTVTVSSASTKGPSVFPLAPSSKSTSGGTAALGCLVKDYFPEPVTVSWNSGALTSGVHTFPAVLQSSGLYSLSSVVTVPSSSLGTQTYICNVNHKPSNTKVDKKVEPKSCDKTHTCPPCPAPEAAGGPSVFLFPPKPKDTLMISRTPEVTCVVVDVSHEDPEVKFNWYVDGVEVHNAKTKPREEQYNSTYRVVSVLTVLHQDWLNGKEYKCKVSNKALGAPIEKTISKAKGQPREPQVCTLPPSRDELTKNQVSLSCAVKGFYPSDIAVEWESNGQPENNYKTTPPVLDSDGSFFLVSKLTVDKSRWQQGNVFSCSVMHEALHNHYTQKSLSLSPGK
chain 3: QAVVTQEPSLTVSPGGTVTLTCGSSTGAVTTSNYANWVQEKPGQAFRGLIGGTNKRAPGTPARFSGSLLGGKAALTLSGAQPEDEAEYYCALWYSNLWVFGGGTKLTVLSSASTKGPSVFPLAPSSKSTSGGTAALGCLVKDYFPEPVTVSWNSGALTSGVHTFPAVLQSSGLYSLSSVVTVPSSSLGTQTYICNVNHKPSNTKVDKKVEPKSC
chain 4: DIQMTQSPSSLSASVGDRVTITCKASAAVGTYVAWYQQKPGKAPKLLIYSASYRKRGVPSRFSGSGSGTDFTLTISSLQPEDFATYYCHQYYTYPLFTFGQGTKLEIKRTVAAPSVFIFPPSDEQLKSGTASVVCLLNNFYPREAKVQWKVDNALQSGNSQESVTEQDSKDSTYSLSSTLTLSKADYEKHKVYACEVTHQGLSSPVTKSFNRGEC
